From US10618964B2, “Nanobody against IL-6R” (Ablynx N.V., dated 2020)
Substitutions are numbered along the chain they refer to.

B1: IL6RPMP105D3 (VHH)
VHH: EVQLEESGGGLVQAGGSLRLSCAASGSIFRINAMGWYRQAPGKQRELVAAAISGGSTNYADFVKGRFTISRDNAKNTVYLQMNSLKPEDTAVYYCNALVVSHNYSDYVPFPDDYWGQGTQVTVSS
B2: IL6RPMP101G2 (VHH)
VHH: B1 VHH with E5V
B3: IL6RPMP106F4 (VHH)
VHH: B1 VHH with E5V, E88G
B4: IL6RPMP105C2 (VHH)
VHH: B1 VHH with E5V, K43E
B5: IL6RPMP106F7 (VHH)
VHH: B1 VHH with E5V, G8E
B6: IL6RPMP104B8 (VHH)
VHH: EVQLVESGGGLVQAGGSLRLSCAASGFAFDDYAIGWFRQAPGKEREGVSSISSSNGNTYYADSVRGRFTISSDNAKNTVYLQMNSLKPEDTGVYYCAAIWGIFFNEKMPVGAYDYWGQGTQVTVSS
B7: IL6RPMP105H10 (VHH)
VHH: B6 VHH with L4M, T91A
B8: IL6RPMP101F2 (VHH)
VHH: B6 VHH
B9: IL6RPMP101C3 (VHH)
VHH: B6 VHH with Q13R
B10: IL6RPMP101A1 (VHH)
VHH: EVQLVESGGGTVQAGGSLKLSCAASGRTFTNYAMGWFRQAPGKEREFVAAIAYATHFADSVKGRFTISRGNAKNTVYLQMNSLKPEDTAVYYCAADLSLSKMVSKITSDMDYWGKGTLVTVSS
B11: IL6RPMP107G10 (VHH)
VHH: EVQLVESGGGLVQAGGSLRLSCAASGSIENINAMGWYRQAPGKQRDFLAIITDGSKTLYADSVKGRFTISNDNAKNTVYLQMNSLKPEDTAVYYCNAYQAGWGDYWGQGTQVTVSS
B12: IL6RPMP107E4 (VHH)
VHH: B11 VHH with E29D, N30R, I50V, S55D
B13: IL6RPMP120C1 (VHH)
VHH: EVQLVESGGGLVQAGGSLSLSCATSGRTISDDTMAWFRQAPGKEREFVATITFSGARTHYSDSVRDRFTISRDNAKNTVYLQMNSLKSEDTAVYYCAASTKYYSSTYNYIHPAFYDIWGQGTQVTVSS
B14: IL6RPMP120D2 (VHH)
VHH: B13 VHH
B15: IL6RPMP120B2 (VHH)
VHH: B13 VHH
B16: IL6RPMP120A1 (VHH)
VHH: B13 VHH
B17: IL6RPMP100G11 (VHH)
VHH: EVQLVESGGGLVQAGGSLRLSCAASGRGFSPYTMGWFRQAPGKERVFVAGISWSTGIAHYTDSVKGRFTISRDNAKNTGSLQMNSLKPEDTAVYYCAVVQTTKGNYDYWGQGTQVTVSS
B18: IL6RPMP107A9 (VHH)
VHH: EVQLVESGGGLVQAGGSLRLSCAASGGIFSDMFMGWFRQAPGKSRESVARISPSGNTFYQDSVRGRFTISTDNAKNTVYLQMNNLKPEDTAVYYCAANVGVTGSYEYWGQGTQVTVSS
B19: IL6RPMP107A1 (VHH)
VHH: EVQLVESGGGLVQAGGSLNLSCNASGDIGSINAMGWYRQAPGQQREWVAVITDTDSTIYPDSVKGRFAISRDGAKNTVHLRMSSLKPEDTAVYYCNAYQAGWGDYWGQGTQVTVSS
B20: IL6RPMP120F4 (VHH)
VHH: EVQLVESGGGLVQTGGSLRLSCAVSGRTDSTASVGWFRQAPGKQREWVVGISSGGSTHYADSVKGRFISSQDDAKNTVYLQMNSLKPEDTAIYYCAIAHGSSTYNYWGQGTQVTVSS
B21: IL6RPMP108E1 (VHH)
VHH: EVQLVESGGGLVQAGGSLRLSCAASGFTFDDYDIGWFRQAPGKEREGVSGISSSDGNTYYADSVKGRFTISSDNAKNTVYLQMNSLKPEDTAVYYCAAEPPDSSWYLDGSPEFFKYWGQGTQVTVSS
B22: Reference IgG (antibody, V domains shown)
VH: QVQLQESGPGLVRPSQTLSLTCTVSGYSITSDHAWSWVRQPPGRGLEWIGYISYSGITTYNPSLKSRVTMLRDTSKNQFSLRLSSVTAADTAVYYCARSLARTTAMDYWGQGSLVTVSS
VL: DIQMTQSPSSLSASVGDRVTITCRASQDISSYLNWYQQKPGKAPKLLIYYTSRLHSGVPSRFSGSGSGTDFTFTISSLQPEDIATYYCQQGNTLPYTFGQGTKVEIKR

These binders were tested against T1, native soluble IL-6R in human plasma (human, UniProt P08887) (assay: ELISA 1, periplasmic extract; competitor IL-6; human plasma).

Row | OD450 ratio sample/blank | Binder
1 | 0.457 | B1
2 | 0.597 | B2
3 | 0.557 | B3
4 | 0.577 | B4
5 | 0.672 | B5
6 | 1.46 | B6
7 | 0.627 | B7
8 | 0.569 | B8
9 | 0.58 | B9
10 | 0.508 | B10
11 | 0.523 | B11
12 | 0.592 | B12
13 | 0.567 | B13
14 | 0.659 | B14
15 | 0.645 | B15
16 | 0.598 | B16
17 | 1.71 | B17
18 | 1.08 | B18
19 | 0.215 | B19
20 | 0.498 | B20
21 | 0.0894 | B21

Each binder was assayed against T2, soluble IL-6R in cynomolgous plasma (cynomolgus monkey, UniProt A0A2K5WN54) (assay: plasma potency ELISA, purified Nanobody; competitor IL-6; cyno plasma).
Protocol: (§1) In this ELISA, plasma was used as a source of native soluble IL-6R. By this assay, we aimed to confirm the alphascreen results and to get a view on the cross-reactivity of the clones towards cynomolgous IL-6R. Human plasma (ELISA 1 and ELISA 3) or cynomolgous plasma (ELISA 2) were pre-incubated with a dilution of the periplasmic extract of the clones together with human IL-6 (50 ng/mL). Subsequently, plasma soluble IL-6R was captured on a B-N12 coated plate and bound IL-6 was detected using anti-IL-6 antibody BAF206 and streptavidin-HRP (ELISA 1 and ELISA 2). The ELISA signal dropped when the Nanobody clone could compete with IL-6 for binding to soluble IL-6R. ELISA 3 was a parallel ELISA in which the detection antibody was replaced by anti-IL-6R antibody BAF227 to exclude false positive competitors, which actually compete with B-N12 (e.g. family 2). Depicted in Table C-5 is the ratio of the OD450 value of the test sample versus the blank OD450 (mock sample). Clones were ordered based on ELISA 1 data.
(§2) A potency ELISA was done with the purified Nanobodies as described in Example 9. Here, different dilutions of each purified Nanobody were incubated with human (ELISA1) and cynomolgous plasma (ELISA2). IC50 values are depicted in Table C-9.

Row | IC50 | Binder
22 | 252 nM | B6
23 | 4.7 nM | B18
24 | 47.8 nM | B19
25 | 29.1 nM | B21

The binders below were run against IL-6R on TF-1 cells (Homo sapiens (Human), UniProt P08887) (assay: cell-based or functional assay).

Row | IC50, IL-6-dependent proliferation of TF-1 cells (3H-thymidine) | Binder
26 | 245 nM | B6
27 | 116 nM | B17
28 | 349 nM | B18
29 | 4.05 nM | B19
30 | 0.53 nM | B22
31 | 0.149 nM | B21

Each binder was assayed against T1, native soluble IL-6R in human plasma (assay: plasma potency ELISA, purified Nanobody; competitor IL-6; human plasma).
Protocol: as §1, §2

Row | IC50 | Binder
32 | 7.8 nM | B6
33 | 3.5 nM | B18
34 | 0.38 nM | B19
35 | 0.15 nM | B21

These binders were tested against T1, native soluble IL-6R in human plasma (assay: ELISA 3, periplasmic extract; competitor BN-12; human plasma).

Row | OD450 ratio sample/blank | Binder
36 | 1.01 | B1
37 | 0.975 | B2
38 | 1.01 | B3
39 | 0.996 | B4
40 | 1 | B5
41 | 1.05 | B6
42 | 1.02 | B7
43 | 0.972 | B8
44 | 0.975 | B9
45 | 0.989 | B10
46 | 1.01 | B11
47 | 1.02 | B12
48 | 1.02 | B13
49 | 0.993 | B14
50 | 1.02 | B15
51 | 1.01 | B16
52 | 0.997 | B17
53 | 0.992 | B18
54 | 0.967 | B19
55 | 0.923 | B20
56 | 0.954 | B21

Each binder was assayed against T2, soluble IL-6R in cynomolgous plasma (assay: ELISA 2, periplasmic extract; competitor IL-6; cyno plasma).

Row | OD450 ratio sample/blank | Binder
57 | 0.995 | B1
58 | 1.04 | B2
59 | 1.19 | B3
60 | 1.01 | B4
61 | 1 | B5
62 | 0.735 | B6
63 | 0.679 | B7
64 | 0.811 | B8
65 | 0.801 | B9
66 | 0.521 | B10
67 | 0.883 | B11
68 | 1.19 | B12
69 | 0.187 | B13
70 | 0.158 | B14
71 | 0.204 | B15
72 | 0.198 | B16
73 | 0.202 | B17
74 | 0.0867 | B18
75 | 0.292 | B19
76 | 0.0331 | B20
77 | 0.359 | B21
